# Target: SARS-CoV-2 Nsp15 catalytically inactive mutant H234A (SARS-CoV-2)
# Experiment: cryo-EM structure
substance,measurement,value
SARS-CoV-2 Nsp15 catalytically inactive mutant H234A (enzyme),stoichiometry N,6

# — article PMC11214832
